In patent US9249224B2 (RINAT NEUROSCIENCE CORP., priority 2011, dated 2016):

Assays:
IGFBP-3 = test: Serum IGFBP-3 levels in cynomolgus monkeys after a single antibody dose; type: in vivo, cynomolgus monkey; details: for serum IGFBP-3 levels (% change from baseline) / serum IGFBP-3 decrease below baseline: cynomolgus monkeys
Procedure: To determine if GHR antagonist monoclonal antibodies can affect IGF-1, IGFBP-3, and ALS levels in vivo by inhibiting the function of GHR, the effect of humanized anti-human GHR antibody SS1 was tested in cynomolgus monkeys. A dose-response study was conducted to test for changes in IGF-1, IGFBP-3, and ALS levels following a single dose of SS1. Eight naïve female cynomolgus monkeys were injected intravenously with a single dose of SS1 or negative control human IgG2, in 1×PBS 0.01% Tween™ 20. Two monkeys were dosed with 30 mg/kg SS1, two were dosed with 10 mg/kg SS1, two were dosed with 3 mg/kg SS1, and two were dosed with 30 mg/kg negative control human IgG2Δa on Day 1. […] Serum was also taken from the 30 mg/kg SS1 and negative control treated animals at 864 h post-dose.
Serum samples were analyzed for changes in IGFBP-3 levels compared to baseline using an R&D Systems™ Quantikine™ human IGFBP-3 immunoassay kit (cat. #DGB300).

human GHR = target: T1, human GHR (Homo sapiens, UniProt P10912, I544L); test: STAT5 phosphorylation in vitro assay, human GHR-transfected HEK293 cells; type: cell-based; details: for fluorescent signal ave (phospho-STAT5): Table 7, human GHR-transfected cells
T1 construct: expressed in transfected cells; host or cells: HEK293
T1 sequence (P10912 19-638 I544L): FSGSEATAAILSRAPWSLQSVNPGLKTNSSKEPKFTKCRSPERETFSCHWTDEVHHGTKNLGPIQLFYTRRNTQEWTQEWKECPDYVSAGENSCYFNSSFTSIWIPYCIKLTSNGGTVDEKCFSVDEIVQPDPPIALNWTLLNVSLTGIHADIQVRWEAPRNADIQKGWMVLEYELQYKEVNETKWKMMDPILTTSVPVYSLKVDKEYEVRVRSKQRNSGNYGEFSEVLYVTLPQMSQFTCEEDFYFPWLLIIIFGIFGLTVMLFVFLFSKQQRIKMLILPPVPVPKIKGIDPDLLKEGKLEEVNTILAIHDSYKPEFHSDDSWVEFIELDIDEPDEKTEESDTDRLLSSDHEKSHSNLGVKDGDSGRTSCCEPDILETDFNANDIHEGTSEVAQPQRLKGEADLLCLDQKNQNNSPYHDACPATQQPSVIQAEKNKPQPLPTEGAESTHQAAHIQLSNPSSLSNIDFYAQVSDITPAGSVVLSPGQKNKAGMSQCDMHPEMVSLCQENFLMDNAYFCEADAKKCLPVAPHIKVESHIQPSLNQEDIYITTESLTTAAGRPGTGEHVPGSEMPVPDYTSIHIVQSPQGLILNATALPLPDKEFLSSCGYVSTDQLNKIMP
Procedure: This Example illustrates the effect of GHR antibodies in an in vitro STAT5 phosphorylation assay. In this Example, the ability of GHR antibodies to block GHR downstream signaling was tested in vitro using human GHR overexpressing cells and cyno GHR overexpressing cells. […]
Antibodies SS3 and SS1 (hIgG2Δa) were tested using a STAT5 phosphorylation assay. For the STAT5 assay, full-length human GHR overexpressing HEK293 cells or full-length cyno GHR-overexpressing HEK293 cells were cultured, counted by automated cell counter, and seeded in warm freestyle media in 12-well plates (5×10^5 cells/well in 1 ml media). Cells were allowed to settle for 3 hours at 37° C. then treated with 2.5, 5, 50, or 500 nM of SS1 or SS3 in media.
Millipore™ lysis buffer with 1× protease inhibitor cocktail and sodium orthovanadate was added to each pellet at a volume of 100 ul/pellet Cells were vortexed and incubated for 15 minutes at room temp with occasional vortexing, Millipore™ Assay buffer 2 with 1× protease inhibitor cocktail and 1 mM sodium orthovanadate was then added to the lysates at 200 ul/well.
25 ul/well of sample lysate was added to the wells and the beads and samples were incubated overnight at 4′C with shaking in the dark. […]
The plate was read using a Luminex 200 instrument and florescent signal emitted from the samples was measured.

B1: SS1: humanized GHR antagonist antibody; VL SEQ ID NO: 7, VH SEQ ID NO: 8; hIgG2Δa heavy chain SEQ ID NO: 134, light chain SEQ ID NO: 135 (antibody)
heavy: EVQLVESGGGLVKPGGSLRLSCAASGFTFSDAWMDWVRQAPGKGLEWVAEIRSKANYHATYYAESVKGRFTISRDDSKNTLYLQMNSLKTEDTAVYYCTLIRDYWGQGTLVTVSSASTKGPSVFPLAPCSRSTSESTAALGCLVKDYFPEPVTVSWNSGALTSGVHTFPAVLQSSGLYSLSSVVTVPSSNFGTQTYTCNVDHKPSNTKVDKTVERKCCVECPPCPAPPVAGPSVFLFPPKPKDTLMISRTPEVTCVVVDVSHEDPEVQFNWYVDGVEVHNAKTKPREEQFNSTFRVVSVLTVVHQDWLNGKEYKCKVSNKGLPSSIEKTISKTKGQPREPQVYTLPPSREEMTKNQVSLTCLVKGFYPSDIAVEWESNGQPENNYKTTPPMLDSDGSFFLYSKLTVDKSRWQQGNVFSCSVMHEALHNHYTQKSLSLSPGK
light: EIVLTQSPGTLSLSPGERATLSCTATSSVSSSYLNWYQQKPGQAPRLLIYSTSNLASGIPDRFSGSGSGTDFTLTISRLEPEDFAVYYCHQYHRSTPTFGGGTKVEIKRTVAAPSVFIFPPSDEQLKSGTASVVCLLNNFYPREAKVQWKVDNALQSGNSQESVTEQDSKDSTYSLSSTLTLSKADYEKHKVYACEVTHQGLSSPVTKSFNRGEC
modifications: Humanized and/or affinity matured antibody sequence
IGFBP-3; SS1 3 mg/kg IV single dose, 24 h post-injection
  serum IGFBP-3 levels (% change from baseline): −18.75 +/− 1.25%
IGFBP-3; SS1 3 mg/kg IV single dose, 48 h post-injection
  serum IGFBP-3 levels (% change from baseline): −22.8 +/− 3.8%
IGFBP-3; SS1 3 mg/kg IV single dose, 72 h post-injection
  serum IGFBP-3 levels (% change from baseline): −36.45 +/− 6.65%
IGFBP-3; SS1 3 mg/kg IV single dose, 96 h post-injection
  serum IGFBP-3 levels (% change from baseline): −37.35 +/− 5.05%
IGFBP-3; SS1 3 mg/kg IV single dose, 120 h post-injection
  serum IGFBP-3 levels (% change from baseline): −38.25 +/− 4.85%
IGFBP-3; SS1 3 mg/kg IV single dose, 144 h post-injection
  serum IGFBP-3 levels (% change from baseline): −46.8 +/− 0.6%
IGFBP-3; SS1 3 mg/kg IV single dose, 192 h post-injection
  serum IGFBP-3 levels (% change from baseline): −32.55 +/− 1.35%
IGFBP-3; SS1 3 mg/kg IV single dose, 312 h post-injection
  serum IGFBP-3 levels (% change from baseline): 22.4 +/− 1.9%
IGFBP-3; SS1 3 mg/kg IV single dose, 336 h post-injection
  serum IGFBP-3 levels (% change from baseline): 28.15 +/− 12.25%
IGFBP-3; SS1 3 mg/kg IV single dose, by 72 hours
  serum IGFBP-3 decrease below baseline: about 36%
IGFBP-3; SS1 3 mg/kg IV single dose, by 144 hours
  serum IGFBP-3 decrease below baseline: about 47%
IGFBP-3; SS1 10 mg/kg IV single dose, 24 h post-injection
  serum IGFBP-3 levels (% change from baseline): −23.95 +/− 3.35%
IGFBP-3; SS1 10 mg/kg IV single dose, 48 h post-injection
  serum IGFBP-3 levels (% change from baseline): −28.4 +/− 2.9%
IGFBP-3; SS1 10 mg/kg IV single dose, 72 h post-injection
  serum IGFBP-3 levels (% change from baseline): −37.9 +/− 2.4%
IGFBP-3; SS1 10 mg/kg IV single dose, 96 h post-injection
  serum IGFBP-3 levels (% change from baseline): −40.95 +/− 0.35%
IGFBP-3; SS1 10 mg/kg IV single dose, 120 h post-injection
  serum IGFBP-3 levels (% change from baseline): −46.4 +/− 1.1%
IGFBP-3; SS1 10 mg/kg IV single dose, 144 h post-injection
  serum IGFBP-3 levels (% change from baseline): −51.05 +/− 8.85%
IGFBP-3; SS1 10 mg/kg IV single dose, 192 h post-injection
  serum IGFBP-3 levels (% change from baseline): −45.95 +/− 6.35%
IGFBP-3; SS1 10 mg/kg IV single dose, 312 h post-injection
  serum IGFBP-3 levels (% change from baseline): −38.7 +/− 9.6%
IGFBP-3; SS1 10 mg/kg IV single dose, 336 h post-injection
  serum IGFBP-3 levels (% change from baseline): −42.25 +/− 1.85%
IGFBP-3; SS1 10 mg/kg IV single dose, by 72 hours
  serum IGFBP-3 decrease below baseline: ~38%
IGFBP-3; SS1 10 mg/kg IV single dose, by 144 hours
  serum IGFBP-3 decrease below baseline: ~51%
IGFBP-3; SS1 30 mg/kg IV single dose, 24 h post-injection
  serum IGFBP-3 levels (% change from baseline): −10.6 +/− 4.6%
IGFBP-3; SS1 30 mg/kg IV single dose, 48 h post-injection
  serum IGFBP-3 levels (% change from baseline): −15.75 +/− 9.35%
IGFBP-3; SS1 30 mg/kg IV single dose, 72 h post-injection
  serum IGFBP-3 levels (% change from baseline): −22.95 +/− 16.15%
IGFBP-3; SS1 30 mg/kg IV single dose, 96 h post-injection
  serum IGFBP-3 levels (% change from baseline): −29.4 +/− 13.9%
IGFBP-3; SS1 30 mg/kg IV single dose, 120 h post-injection
  serum IGFBP-3 levels (% change from baseline): −38.15 +/− 9.45%
IGFBP-3; SS1 30 mg/kg IV single dose, 144 h post-injection
  serum IGFBP-3 levels (% change from baseline): −45.7 +/− 11.9%
IGFBP-3; SS1 30 mg/kg IV single dose, 192 h post-injection
  serum IGFBP-3 levels (% change from baseline): −31.05 +/− 16.05%
IGFBP-3; SS1 30 mg/kg IV single dose, 312 h post-injection
  serum IGFBP-3 levels (% change from baseline): −40.65 +/− 5.05%
IGFBP-3; SS1 30 mg/kg IV single dose, 336 h post-injection
  serum IGFBP-3 levels (% change from baseline): −39.45 +/− 0.85%
IGFBP-3; SS1 30 mg/kg IV single dose, by 72 hours
  serum IGFBP-3 decrease below baseline: ~23%
IGFBP-3; SS1 30 mg/kg IV single dose, by 144 hours
  serum IGFBP-3 decrease below baseline: ~46%
IGFBP-3; single IV dose 3, 10 or 30 mg/kg
  effect on serum IGFBP-3 levels in cynomolgus monkey: dose dependently reduces serum IGFBP-3 levels
Human GHR; 2.5 nM antibody + 4.5 nM GH
  fluorescent signal ave (phospho-STAT5): 60
Human GHR; 5 nM antibody + 4.5 nM GH
  fluorescent signal ave (phospho-STAT5): 22
Human GHR; 50 nM antibody + 4.5 nM GH
  fluorescent signal ave (phospho-STAT5): 0
Human GHR; 500 nM antibody + 4.5 nM GH
  fluorescent signal ave (phospho-STAT5): 5
Human GHR; cells expressing human GHR, 4.5 nM GH
  effect on GH-stimulated STAT5 signaling: blocked STAT5 signaling in a dose-dependent manner
